The source of these data is publication PMC3794440 (Biochemistry, 2013).

One test concerns the target I28A Pin1 (Homo sapiens, UniProt Q13526, I28A). Kind of test: NMR titration. Type of test: binding. The following applies: read-out: equilibrium dissociation constant Kd (I28A), 295 K, 16.4 T, 30 mM imidazole-d4 pH 6.6, 5 mM DTT-d10, 30 mM NaCl, 0.03% NaN3, 90% H2O/10% D2O, uncertainties by jack-knife simulations.
In test [1] the target is T1, wild-type Pin1 (Homo sapiens, UniProt Q13526). Kind of test: NMR titration. The format is binding. The following applies: read-out: equilibrium dissociation constant Kd (WT), 295 K, 16.4 T, 30 mM imidazole-d4 pH 6.6, 5 mM DTT-d10, 30 mM NaCl, 0.03% NaN3, 90% H2O/10% D2O, uncertainties by jack-knife simulations.
Test [2] has as its target T1, wild-type Pin1. The test is described as follows: chromogenic coupled isomerase assay of Kofron et al., WT. The format is biochemical. To be noted: chromogenic substrate suc-AEPF-pNA.

Like-named read-outs stand apart in the source and are kept apart here.

With EQPLpTPVTDL [Cdc25C phosphopeptide], the Kd with I28A Pin1 (residue G20, WW domain) is 43.5 ± 3 µM; in the test with I28A Pin1 (residue R14, WW domain), 48.5 ± 4.9 µM; with I28A Pin1 (residue R54, PPIase domain) it was 110 ± 10 µM; with wild-type Pin1 [1] (residue A140, PPIase domain), 9.7 ± 2 µM; with wild-type Pin1 [1] (residue G20, WW domain) it was 9.1 ± 0.4 µM; with wild-type Pin1 [1] (residue R14, WW domain), 2.7 ± 0.7 µM. For the same substance, in the test with wild-type Pin1 [1] (residue R54, PPIase domain), the Kd is 7.8 ± 0.4 µM.

“WT: full-length wild-type human Pin1 (WW domain and PPIase domain)”: the “specificity constant kcat/KM (WT)” value with wild-type Pin1 [2] is given as 4250 ± 213 mM^–1 s^–1.

In general, Kd refers to the constant that tells how readily two partners part at equilibrium.
